# The nanobody polyreactivity screen of Harvey et al. (2022)
# Assay: yeast display, Sf9 membrane polyspecificity reagent, FACS + sequencing; frameworks hold sequencing errors
# Outline: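 A synthetic nanobody library was expressed on Saccharomyces cerevisiae BJ5465 by galactose induction for 36–48 hours. The library was stained for 1 hour at 4 °C with 10% biotinylated, detergent-solubilized Sf9 membrane reagent and enriched with streptavidin microbeads before FACS. Low and high (top ~1%) gates were set on anti-HA fluorescence for expression and streptavidin fluorescence for reagent binding, and each polyreactivity label reflects the gate of origin.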
row,Sequence,polyreactivity (PSR sort gate)
1,QVQLVESGGVLVQAGGSLRLSCAASGSTFYPNAMGWYRQAPGQEREFVAAISDGGSTTYADSVKGRFTISRDNAKNTVYLQMNSLKPEDTAVYYCNARVGSYTPSWYYQEFDYWGQGTQVTVSS,low polyreactivity
2,QVQLVESGGVLVQAGGSLRLSCAASGSTIPYNTMGWYRQAPRKERELVAAITRTSYADTVKGRFTISRDNAKNTVYLEMISLKREDTAVYYCAADKSFYYYLFGYDYWGQGTQVTVSS,low polyreactivity
3,QVQLVESGGVLVQAGGSLRLSCAASRGIFSGYAMGWYRQAPGKERELVASITRRGSSTYYADSVKGPFTISRDSAKNTVYLQMNSLNPEDTAVYYCHAVLRYHVLYRGYDYWGQGTQLTVSS,high polyreactivity
4,QVQLVESGGVLVQAGGSLRLSCAPSGRIFNYYAMGWYRQAPGKERELVAAISSSGGRTYYADSVKGRFTISRDNAKNTVYLQMNSLKPEDTAVYYCAAYDSLRYSTYDYWGQGTQVTVSS,high polyreactivity
5,QVQLVESGGVLVQAGGSLRLSCASSGSTFTKYAMGWYRQAPGKERELVAAISRSGGGTYYADSVKGRFTISRDNAKNTVYLQMNSLKPEDTAVYYCNAALFRGAQFDYWGQGTQVTVSS,high polyreactivity
6,QVQLVESGGVLVQAGGSLRLSCDASGRIFKYNAMGWYRQAPGKERELVDVITSGVSTYYADSVKGRFTISRDNAKNTVYLQMNSLKPEDTAVYYCAKKYYKVHKFDYWCQGTQVTVSS,low polyreactivity
7,QVQLVESGGVLVQAGGSLRLSCPASGRTFTYNAMGWYRQAPGKERELVAVITNSGGSTYYADSVKGRFTISRDNPKNTVYLQMNSLKPEDTAVYYCAADYFYRYWYRFYYWGQGTQVTVSS,high polyreactivity
8,QVQLVESGGVLVQAGGSLRLTCAASASILYVYAMGWYRHAPGKERELVATITGRVVSTNYADSVKGRFTSSRDNAKNTVYLQMNSLKTEDTALYYCAASTRRRRGEYDYCGQGTQVTVSS,high polyreactivity
9,QVQLVESGGVLVQAGGSLRLTCAASGSNFVTNAMGWYRQAPGKERELVAAISVSGGSTYYADSVKGRFTISRDNAKNTVYLQMNSLKPEDTAVYYCNTVRSPAGHDYWGQGTQVTVSS,low polyreactivity
10,QVQLVESGGVLVQAGGSPRLSCAASGRTYAYYPMGWYRQAPGKERELVARITRGGSTYYADSVKGRFTISRDNAKNSVYLQMYSLIPDDTAVYYCNRYQWQHYTSVYLRTGSDYWGQGTQVTVSS,high polyreactivity
11,QVQLVESGGVLVQAVASLRVSCAASGRILDYNTMGWYRPAPGKERELVAAISFSGGRTYYADSVKGRFTISRDNAKNTFYLQMNSLKPEDTAVYYCAATVGAASRYYYWGQGSQVTVSS,high polyreactivity
12,QVQLVESGGVLVQSGGSLRLSCAASGITLSRYAMGWYRQAPGKERELVAAISRRGGSTYYADSVKGRFTISRDNAKNSVYLQLNSLKPEDTAVDYCAATRYASLSDSGFNYWGQGTQVTVSS,high polyreactivity
13,QVQLVESGGVLVQSGGSLRLSCAASGLIFTWNAMGWYRQAPGKERELVAPISTGGSTSYADSVKGRFTISRDNAKNTVYLQMNSLKPEDTAVYYCARDSSIWSHGSWYDYWGQGTHVTVSS,low polyreactivity
14,QVQLVESGKGLVQAGGILRLSCAASGLIFGFNAMGWYRQAPGKERELVAAIYGSGGTTYYADSVKGRFTISRDNAKNTVYLQMNSLKPEDTAVYYCAGEYIYNVQFSWPKTPAFDYWGQGTLVTVSS,low polyreactivity
15,QVQLVESGKGLVQAGGSLRLSCAASGITITIYAMGWYRNAPGKERELVAAITWRGGRTYYADSVKGRFTISRDNAKNTVYLQMNSLKPEDTAVYYCNALFGSYPYYWFEYWGHGTQVTVSS,high polyreactivity
16,QVQLVESGRALVQAGGSLRLSCAASGNTFEDYAMGWYRQAPGKERELVAAINSGGSTNYADSVKGRFTISRDNAKNTVYLQLNSLKPEDTAVYYCAAEPGEGFDYWGQGTQVTVSS,low polyreactivity
17,QVQLVESGRCLVQAGCSLRLSCAASGYTFSRSAMGWYRQAPGKERELVAAISWSGGSTYYADSVKGRFTISRDNAKNTVYLQMNSLKPEDTAVYYCIKVRYVSQTAFYYWGQGTQVTVSS,high polyreactivity
18,QVQLVESGRCLVQDGRSLRLSCAASGRTFYGNAMGWYRQAPAKERELVAAISRSGGRTYYADSVKGRFTISRDNAKNTVYLEMISLKPEDTAVYYFASEIRFWYGYYYWGQGTQVTVSS,high polyreactivity
19,QVQLVESGRGIVQAGRSLRLSCPASGRIYPNAIGWYRQAPGKEREFVAAISRSDGSTYYADSVNGRFTISRDNAKNTVYLQMNSLKPEDTAVYYCATDYRFTSRTANFDYWGQGTLVTVSS,low polyreactivity
20,QVQLVESGRGLDQAGGSLRLSCAASASTFAWYDMGCYRHAPGKEREFVAAIDYGGGSTYADSVKGRFTISRDNAKNTVYLQMNSLKPEDTAVYYCNADNWVYLYDYWGQGTQVTVSS,low polyreactivity
21,QVQLVESGRGLFQAGGSLRLSCAASGFTGSYAMGWYRQAPGKVREFVAAISYRGSSTYYADSVKGRFTISRDNAKNTVYLQMNSLKPEDTAVYYCNSVHYVLYGDYDYWGQGTQVTVSS,high polyreactivity

row,Sequence,polyreactivity (PSR sort gate)
1,QVQLVESGRGLLQAGGSLRLSCASSGGIFPKYAMGWYRQAPGKEREFVASISYRGGSTYYADSVKGRFTISRDNAKNTVYFQMNSLKPDDTAVFYCAKPTYRFYWGDFDYWGQGSQVTVSS,low polyreactivity
2,QVQLVESGRGLVHAGGSLRLSCAASGSIFSPYAMGWYRPAPGKEREFVASITFNGGSTYYADSVKGRFTISRDNAKNTVYLQMTSLKPEDTAVYYCAATYWYDTYWLMDYWGQGTQVTVSS,high polyreactivity
3,QVQLVESGRGLVQAGCSLRLSCAASGSIFEWYAMGWSRQAPGKEMELVADITYNGGSTYYADSVKGRFTISRDNAKNTVYLQMNSLKPEDTAVYYCAADYFVQVPDYYYASEYGYWGQGTQVTVSS,low polyreactivity
4,QVQLVESGRGLVQAGGSLLLSCAASGSTFDVYAMGWYRQAPGKERELVAAIRSSGGSTFYADSVKGRFTISRDNAKNIVYLQMNSLKPEDTAVYYCAARSFVVSGYNKYYEYGDWGQGTQVTVSS,low polyreactivity
5,QVQLVESGRGLVQAGGSLRISCAASGITFVFYAMGWYRQAPGKEIELVAAMSWSGGITYYADSVKGRFTISRDNSKNSVYLQMNSLKPEDTAVYYCAATKRQTKYYGGTTDSIRYYWGQGTQVTVSS,low polyreactivity
6,QVQLVESGRGLVQAGGSLRLICAASGNIFWYNAMGWYRQAPGKERELVAAINWSGGSTYYADSVKGRFRISRDNAKNTVYLEMNSLKPEDTAVYYCYAEWYDGDALQWVEYWGQGTQVTVSS,high polyreactivity
7,QVQLVESGRGLVQAGGSLRLICAASRSIFSYNAMGWYRQAPGKERELVAAIRRGGGTYYADSVKGRFTISRDNAKNTVYLQMISLKPEDTAVYYCNAVRGNNFLGDGYWGLGTQVTVSS,high polyreactivity
8,QVQLVESGRGLVQAGGSLRLRCAASGSTFVYNTMGWYRQAPGKEMELVASISSDGNTYYADSVKGRFTISRDNAKNTVYLQMNSLKPEDTAVFYCGARYYYDWRFVGYDYWGQGTQVTVSS,low polyreactivity
9,QVQLVESGRGLVQAGGSLRLRCAASGYTFTRYAMGWYRQAPRKESELVAAISTSGGRTYYSDSEKGRFTISRDNAKNTVYLQMNRLKPEDTAVYSCAAPIRDGRYDYWGQGTQVTVSS,high polyreactivity
10,QVQLVESGRGLVQAGGSLRLRCASSGRTFSSYAMGWSRQAPGKARELVAAITKRGGNTYYADSVKGRFTISRDNAKNTVYLQMNSLNPEDTAVYYCAAGWERFRNYNYWGQVTQVTVSS,high polyreactivity
11,QVQLVESGRGLVQAGGSLRLSCAASGFTCRWYAIGLYRQAPGKERELVAAISRDGSTNYADSVKGRFTISRDNAKNTVYLQMNSLKPEDTSVYYCAKRYYRYPYSQGDYWGQGTQVTVSS,high polyreactivity
12,QVQLVESGRGLVQAGGSLRLSCAASGFTFVWYAMGWYIPAPGKERELVAAISRRGTRTYYADSVKGRFTISRDNAKNTVYLQMNSLKPEDTAVYYCASESILGYDYWGQSTQVTVSS,high polyreactivity
13,QVQLVESGRGLVQAGGSLRLSCAASGIIFYENAMGWYRQAPGKERELVADITQSGGSTYYADSVKGRFTISRDNAKNTVYLQMNSLKPEDTGVYYCAADGYDPYGGLYDYWGQGNQVTVSS,low polyreactivity
14,QVQLVESGRGLVQAGGSLRLSCAASGIIFYENTMGWYRLAPGKERELVASISWSGGRTYNADSVKGRFTISRDNAKNTVDLQMNSLKPEDTAVYYCAGRPYYLYIYNFWGQGTQVTVSS,high polyreactivity
15,QVQLVESGRGLVQAGGSLRLSCAASGIILGRYAKGWYRQAPGKERELVAVITGDGSTTYADSVKGRFTISRDNAKNTVYLQMNSLKPEDTAVYYCNAAVEGSLNGYEYWGQGTQVTVSS,low polyreactivity
16,QVQLVESGRGLVQAGGSLRLSCAASGITFGYYDMGWYRQAPGKERELVAAIDWTGGGTYYADSVKGRFTISRDYAKNTVYLQMNSVKPVDTAVYYCIDHAGGDSGVSYYPEYDYWGQGTQVTLSS,low polyreactivity
17,QVQLVESGRGLVQAGGSLRLSCAASGITFWYYAMGWYRQAPGKERELVASINRSGGSTYADSVKGRFTISRDNAKITVYLQMNSLKPEDTAVYYCAARLYSSVVRYRYGYWGQGTQVTVSS,high polyreactivity
18,QVQLVESGRGLVQAGGSLRLSCAASGITLYTNAMGWYRQAPGKEREFVAGISWNGGRTYYADSVKGRFTISRDNAKNTVYLQMNSLKPEDTAVYYCNARFVYRYKYYYWGQGTQVTVSS,high polyreactivity
19,QVQLVESGRGLVQAGGSLRLSCAASGLTFSKYAMGWYRQAPGKERELVATISRSGGSTYYADSVKGRFTISRDNAKNTVYVQMNSLKPEDTAVYYCAAGSILYGATGEYIYWGQGTQVTVSS,high polyreactivity
20,QVQLVESGRGLVQAGGSLRLSCAASGLTFVYYDMGWYRQAPGKERELVAAITYIGTSTYYADSVKGRFTISRDNAKNTVYLQMNSLKPEDTAVYYCAAPFPIRSGESWRTDLGYDYWGQGTQVTVSS,low polyreactivity
